From article PMC7832040 (Science translational medicine, 2020)
pKd: −log10 of the molar value.

Assays:
[1] = biological target: endogenous CD206 in human M2-polarized macrophages (human (endogenous in M2-polarized macrophages)) (UniProt P22897); assay: cellular thermal shift assay
[2] = biological target: endogenous CD206 in murine M2-polarized macrophages (BMDMs) (mouse (endogenous in M2 BMDMs)) (UniProt Q61830); assay: cellular thermal shift assay
[3] = biological target: mannose receptor CD206, human, recombinant (human) (UniProt P22897); assay: MST
murine CD206 (murine) = murine CD206 (murine) (UniProt Q61830); assay: MST
Sequence of murine CD206 (murine) (Q61830 20-1456): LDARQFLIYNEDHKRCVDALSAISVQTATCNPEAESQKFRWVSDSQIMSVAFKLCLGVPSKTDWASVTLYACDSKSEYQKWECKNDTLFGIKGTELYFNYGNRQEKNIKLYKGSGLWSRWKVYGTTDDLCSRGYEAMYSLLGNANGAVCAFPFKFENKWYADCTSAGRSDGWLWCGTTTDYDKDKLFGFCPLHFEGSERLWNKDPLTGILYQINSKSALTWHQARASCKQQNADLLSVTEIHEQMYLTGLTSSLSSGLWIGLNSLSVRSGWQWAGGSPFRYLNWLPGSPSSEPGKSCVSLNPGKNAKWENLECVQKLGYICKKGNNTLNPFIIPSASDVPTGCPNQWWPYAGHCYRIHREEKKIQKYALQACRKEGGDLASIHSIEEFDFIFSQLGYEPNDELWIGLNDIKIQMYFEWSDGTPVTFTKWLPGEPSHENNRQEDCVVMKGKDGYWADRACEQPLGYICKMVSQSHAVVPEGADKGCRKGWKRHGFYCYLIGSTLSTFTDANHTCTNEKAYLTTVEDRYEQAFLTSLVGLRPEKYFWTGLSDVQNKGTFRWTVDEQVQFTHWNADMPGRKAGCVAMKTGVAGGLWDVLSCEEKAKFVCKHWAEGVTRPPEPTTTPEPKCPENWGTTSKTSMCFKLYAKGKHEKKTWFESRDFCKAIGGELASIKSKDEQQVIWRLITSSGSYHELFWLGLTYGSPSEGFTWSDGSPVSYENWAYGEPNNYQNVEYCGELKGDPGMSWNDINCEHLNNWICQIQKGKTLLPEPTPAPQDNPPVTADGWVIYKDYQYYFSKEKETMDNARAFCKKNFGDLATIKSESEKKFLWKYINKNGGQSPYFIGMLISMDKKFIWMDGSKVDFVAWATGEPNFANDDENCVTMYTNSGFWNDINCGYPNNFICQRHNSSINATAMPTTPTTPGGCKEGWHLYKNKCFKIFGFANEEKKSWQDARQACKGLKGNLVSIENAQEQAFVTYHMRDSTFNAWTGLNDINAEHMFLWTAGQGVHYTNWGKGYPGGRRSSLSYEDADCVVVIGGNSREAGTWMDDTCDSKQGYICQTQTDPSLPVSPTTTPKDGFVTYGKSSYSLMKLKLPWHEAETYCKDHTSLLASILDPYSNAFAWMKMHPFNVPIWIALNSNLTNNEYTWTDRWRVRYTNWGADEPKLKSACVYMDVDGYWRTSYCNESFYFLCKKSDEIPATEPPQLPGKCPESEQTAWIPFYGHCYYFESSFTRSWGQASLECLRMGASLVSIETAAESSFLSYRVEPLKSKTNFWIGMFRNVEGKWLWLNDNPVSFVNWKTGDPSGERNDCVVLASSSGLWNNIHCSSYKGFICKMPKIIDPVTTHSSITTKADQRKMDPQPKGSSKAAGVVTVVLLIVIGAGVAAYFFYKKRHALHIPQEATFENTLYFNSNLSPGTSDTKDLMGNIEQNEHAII

CD206 = biological target: T1, CD206 (Homo sapiens, UniProt P22897); details: xenotransplanted tumors; ref [39]–[41]; cited from earlier work
T1 sequence (P22897 19-1456): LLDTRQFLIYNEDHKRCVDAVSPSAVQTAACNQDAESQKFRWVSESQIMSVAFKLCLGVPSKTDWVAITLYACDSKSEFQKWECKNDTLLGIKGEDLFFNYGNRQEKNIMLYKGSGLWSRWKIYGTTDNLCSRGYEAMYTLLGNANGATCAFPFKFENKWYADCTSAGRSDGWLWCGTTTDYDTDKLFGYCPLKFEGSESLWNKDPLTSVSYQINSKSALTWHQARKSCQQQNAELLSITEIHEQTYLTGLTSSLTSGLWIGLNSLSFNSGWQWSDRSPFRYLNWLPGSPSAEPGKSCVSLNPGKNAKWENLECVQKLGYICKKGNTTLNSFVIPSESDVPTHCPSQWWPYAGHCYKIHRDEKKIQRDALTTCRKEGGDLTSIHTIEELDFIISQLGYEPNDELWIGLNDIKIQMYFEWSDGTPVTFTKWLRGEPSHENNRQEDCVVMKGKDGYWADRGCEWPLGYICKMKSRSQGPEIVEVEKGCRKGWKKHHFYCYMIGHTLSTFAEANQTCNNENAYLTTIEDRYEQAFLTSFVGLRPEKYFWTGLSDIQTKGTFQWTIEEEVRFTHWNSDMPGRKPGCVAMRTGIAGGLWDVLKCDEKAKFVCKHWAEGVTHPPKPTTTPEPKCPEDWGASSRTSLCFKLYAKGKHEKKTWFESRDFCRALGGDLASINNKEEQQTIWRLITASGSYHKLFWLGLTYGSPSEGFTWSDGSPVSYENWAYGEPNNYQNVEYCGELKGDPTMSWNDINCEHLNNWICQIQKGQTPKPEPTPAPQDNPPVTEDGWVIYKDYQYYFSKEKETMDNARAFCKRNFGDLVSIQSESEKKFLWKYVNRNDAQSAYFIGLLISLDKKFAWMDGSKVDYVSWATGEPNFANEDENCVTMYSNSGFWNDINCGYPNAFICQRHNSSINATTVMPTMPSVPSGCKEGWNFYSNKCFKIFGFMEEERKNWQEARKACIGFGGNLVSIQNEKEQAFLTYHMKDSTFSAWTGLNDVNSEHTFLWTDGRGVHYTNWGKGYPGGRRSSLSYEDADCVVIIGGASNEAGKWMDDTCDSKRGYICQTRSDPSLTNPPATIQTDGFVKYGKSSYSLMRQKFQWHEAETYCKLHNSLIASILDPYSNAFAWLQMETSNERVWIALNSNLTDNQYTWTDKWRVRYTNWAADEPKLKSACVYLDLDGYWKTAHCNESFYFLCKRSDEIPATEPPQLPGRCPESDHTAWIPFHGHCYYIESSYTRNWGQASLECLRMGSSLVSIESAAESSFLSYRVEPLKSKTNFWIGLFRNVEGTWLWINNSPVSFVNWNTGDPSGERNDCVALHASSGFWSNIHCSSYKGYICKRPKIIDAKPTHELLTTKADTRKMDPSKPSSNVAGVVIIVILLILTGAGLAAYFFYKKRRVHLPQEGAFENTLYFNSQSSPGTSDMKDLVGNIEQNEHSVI

Sequence of endogenous CD206 in murine M2-polarized macrophages (BMDMs) (mouse (endogenous in M2 BMDMs)) (Q61830 20-1456): as the sequence (Q61830 20-1456) above

Substance | thermostability shift of CD206 (CETSA) [1] [°] | thermostability shift of CD206 (CETSA) [2] [°] | pKd [3] | pKd (murine CD206 (murine)) | delivery of nanoparticles to tumors (CD206)
RP-182 (peptide) | > 4 | > 4 | 5.10 | 4.72 | 
CSPGAKVRC [UNO] |  |  |  |  | able to carry drug-loaded nanoparticles targeting CD206 into xenotransplanted tumors
